Laboratory results: patent US20250206836A1 (ONA THERAPEUTICS S L, published 2025)

T1: Cyno FcγRIIa (Macaca fascicularis, UniProt A0A140HDN0)
T1 construct: soluble receptor protein; bar 8 of each group
T1 sequence (receptor): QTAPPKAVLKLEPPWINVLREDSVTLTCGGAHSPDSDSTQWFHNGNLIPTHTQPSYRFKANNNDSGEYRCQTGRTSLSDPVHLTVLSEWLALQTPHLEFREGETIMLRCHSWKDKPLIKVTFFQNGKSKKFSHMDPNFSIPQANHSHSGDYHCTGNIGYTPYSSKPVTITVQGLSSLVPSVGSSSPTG

T2: Human FcγRIIa (131H) (human, UniProt P12318)
T2 construct: soluble receptor protein; bar 5 of each group
T2 sequence (receptor, looked up): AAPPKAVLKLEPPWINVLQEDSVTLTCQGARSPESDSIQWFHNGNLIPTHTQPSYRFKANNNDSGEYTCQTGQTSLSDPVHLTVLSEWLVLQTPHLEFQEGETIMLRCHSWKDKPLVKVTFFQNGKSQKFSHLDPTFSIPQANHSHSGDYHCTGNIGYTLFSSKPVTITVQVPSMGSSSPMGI

T3: Human FcγRIIb (human, UniProt P31994)
T3 construct: soluble receptor protein; bar 7 of each group
T3 sequence (receptor, looked up): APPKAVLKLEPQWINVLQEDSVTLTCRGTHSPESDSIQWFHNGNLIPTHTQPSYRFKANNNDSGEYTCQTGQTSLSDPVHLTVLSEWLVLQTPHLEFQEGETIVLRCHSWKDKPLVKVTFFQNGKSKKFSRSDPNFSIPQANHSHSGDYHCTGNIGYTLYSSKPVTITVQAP

T4: Human FcγRIIa (131R) (human, UniProt P12318)
T4 construct: soluble receptor protein; bar 6 of each group
T4 sequence (receptor, looked up): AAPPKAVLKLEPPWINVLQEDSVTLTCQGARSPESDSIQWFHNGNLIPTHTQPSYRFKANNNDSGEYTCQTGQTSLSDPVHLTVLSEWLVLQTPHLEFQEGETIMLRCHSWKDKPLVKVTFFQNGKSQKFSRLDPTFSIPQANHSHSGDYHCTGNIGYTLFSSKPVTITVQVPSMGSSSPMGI

T5: Cyno FcγRIIb (Macaca fascicularis, UniProt A0A140HDP4)
T5 construct: soluble receptor protein; bar 9 of each group
T5 sequence (receptor): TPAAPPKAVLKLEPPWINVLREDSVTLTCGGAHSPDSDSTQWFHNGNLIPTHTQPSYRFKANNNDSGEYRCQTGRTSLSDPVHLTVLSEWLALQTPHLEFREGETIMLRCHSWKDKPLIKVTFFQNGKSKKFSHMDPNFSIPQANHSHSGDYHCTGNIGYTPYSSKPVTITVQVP


Assays:
[1] = biological target: T6, human CD36 (on HEK 293 or SCC25 cells) (human, UniProt P16671 2-472); assay: cell-based or functional assay
[2] = biological target: T6, human CD36 (on HEK 293 or SCC25 cells); assay: FACS, HEK 293 cells transiently overexpressing CD36;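 note: antibody binding to transfected cells detected by flow cytometry with a fluorescent anti-human secondary antibody, EC50 from a four-parameter sigmoidal fit of mean fluorescence intensity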
Protocol: (§1) After transiently transfecting the HEK 293 cells with a CD36 expression construct, cells were treated with three-fold serial dilution of each candidate antibody (10 dilutions starting at 500 nM). […] After incubation with the cells, an anti-human fluorescently labelled antibody was added to the cell media, allowed to incubate further, and the unbound antibody was washed off of the cells. Subsequently, the cells were subjected to FACS analysis to determine antibody binding to the cells. The results were fitted to a sigmoidal titration curve. Using a nonlinear regression model, the EC₅₀ values for each antibody were calculated from the GeoMFI and MFI values using the log(agonist) versus response (four parameters) fitting on the data transformed according to X=Log[X] in GraphPad PRISM.

[3] = biological target: T7, nonhuman primate CD36 (on HEK 293 cells) (cynomolgus monkey / rhesus macaque, UniProt P16671 2-472 (human entry)); assay: as above
T7 construct: also called non-human primate CD36 (cynomolgus)
Protocol: as §1

[4] = biological target: T8, mouse CD36 (on HEK 293 cells) (mouse, UniProt Q08857 1-472); assay: as above
T8 construct: also called Murine CD36
Protocol: as §1

C1q human protein = biological target: T9, C1q human protein (human, UniProt P02745 23-245; P02746 28-253; P02747 29-245); assay: ELISA, plates coated with the antibody, C1q human protein titrated, Mean Absorbance (OD Units)
T9 construct: also called complement C1q protein
Protocol: Binding to complement C1q protein was also measured, using a standard ELISA assay in which 96-well ELISA plates were coated with the tested antibodies and C1q human protein was added (2.5-fold serial dilution starting at 250 g/mL).

[5] = biological target: T6, human CD36 (on HEK 293 or SCC25 cells); assay: cell-based or functional assay; remark: listed apart in the source
[6] = biological target: T6, human CD36 (on HEK 293 or SCC25 cells); assay: FACS, SCC25 cells stably expressing human CD36
Protocol: SCC25 cells were treated with 10-fold serial dilution of each antibody (5 dilutions starting at 100 nM). After incubation with the cells, an anti-human fluorescently labelled antibody was added to the cell media, allowed to incubate further, and the unbound antibody was washed off of the cells. Subsequently, the cells were subjected to FACS analysis to determine antibody binding to the cells. The results were fitted to a sigmoidal titration curve. Using a nonlinear regression model, the EC₅₀ values for each antibody were calculated from the GeoMFI and MFI values using the log(agonist) versus response (four parameters) fitting on the data transformed according to X=Log[X] in GraphPad PRISM.

[7] = biological target: T10, human CD36 (Sino Biological) (human, UniProt P16671 30-439); assay: ELISA, plates coated with human CD36 (Sino Biological), antibody titrated, OD630nm
T10 construct: Bought protein coated on ELISA plates
Description: Binding was first tested using an ELISA assay in which 96-well ELISA plates were coated with human CD36 (Sino Biological) or mouse CD36 protein.

human FcRn = human FcRn (human, UniProt P55899 24-297; P61769 21-119); assay: SPR at pH 5.8, antibody immobilized through its light chains, soluble human FcRn
Protocol: (§2) The binding of the different Fc-formatted anti-CD36 antibodies to FcγRs and FcRn was measured by SPR by immobilizing the antibodies through their light chains. The setup for these assays orients the antibody such that the Fc domain is solvent-exposed, allowing quantification of the interaction with soluble receptor proteins. Antibodies with well-defined binding properties were included as positive/negative controls in all the assays.

human CD36 (His-tagged) = biological target: T11, human CD36 (His-tagged) (human, UniProt P16671 30-439); assay: SPR (Biacore T200), His-captured CD36, bivalent analyte model
T11 construct: not shown: His tag

[8] = biological target: T6, human CD36 (on HEK 293 or SCC25 cells); assay: FACS, SCC25 cells stably overexpressing human CD36
[9] = biological target: T6, human CD36 (on HEK 293 or SCC25 cells); assay: cell-based or functional assay; remark: listed apart in the source
Human FcγRIIIb = biological target: T12, Human FcγRIIIb (human, UniProt O75015); assay: SPR, antibody immobilized through its light chains, soluble receptor injected; Mean Relative Response (RU)
T12 construct: soluble receptor protein; bar 3 of each group
Protocol: as §2

Cyno FcγRIIa = biological target: T1, Cyno FcγRIIa; assay: as above
Protocol: as §2

Cyno FcγRIII = biological target: T13, Cyno FcγRIII (cynomolgus monkey, UniProt Q8SPW2); assay: as above
T13 construct: soluble receptor protein; bar 4 of each group
Protocol: as §2

Human FcγRIIIa (158F) = biological target: T14, Human FcγRIIIa (158F) (human, UniProt P08637); assay: as above
T14 construct: soluble receptor protein; bar 1 of each group
Protocol: as §2

Human FcγRIIIa (158V) = biological target: T15, Human FcγRIIIa (158V) (human, UniProt P08637); assay: as above
T15 construct: soluble receptor protein; bar 2 of each group
Protocol: as §2

Human FcγRIIa (131H) = biological target: T2, Human FcγRIIa (131H); assay: as above
Protocol: as §2

Human FcγRIIb = biological target: T3, Human FcγRIIb; assay: as above
Protocol: as §2

Human FcγRIIa (131R) = biological target: T4, Human FcγRIIa (131R); assay: as above
Protocol: as §2

Human FcγRI = biological target: T16, Human FcγRI (human, UniProt P12314); assay: as above
T16 construct: soluble receptor protein; bar 10 of each group
Protocol: as §2

Cyno FcγRIIb = biological target: T5, Cyno FcγRIIb; assay: as above
Protocol: as §2

[10] = biological target: T6, human CD36 (on HEK 293 or SCC25 cells); assay: FACS, HEK 293 cells
[11] = biological target: T7, nonhuman primate CD36 (on HEK 293 cells); assay: FACS, HEK 293 cells transiently overexpressing CD36; remark: listed apart in the source;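 for EC50: antibody binding to transfected cells detected by flow cytometry with a fluorescent anti-human secondary antibody, EC50 from a four-parameter sigmoidal fit of mean fluorescence intensity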
Protocol: as §1

[12] = biological target: T17, purified biotin-tagged human CD36 (human, UniProt P16671 30-439, limits assumed, biotin tag, site not stated); assay: AlphaScreen competition; competitor 1G04 on acceptor beads;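 note: streptavidin donor beads excited at 680 nm release singlet oxygen, and the light signal needs a nearby acceptor bead, with 30 min donor-bead incubation at 25 °C in the dark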
[13] = biological target: T17, purified biotin-tagged human CD36; assay: AlphaScreen competition; competitor FA6-152 on acceptor beads
Protocol: This was done using the AlphaScreen® bead-based microplate assay. […] AlphaLISA® Streptavidin Donor Beads were then added and the mix incubated for 30 min at 25° C. in the dark. The donor bead contains a photosensitizer, which upon excitation by light at 680 nm, converts oxygen (O₂) into an excited form, singlet oxygen. Singlet oxygen molecules have a reduced lifetime (4 microseconds half-life) and can diffuse approximately 200 nm in solution before falling back to ground state. In the absence of acceptor beads, the singlet oxygen molecules fall back to ground state without producing any light signal.
Throughout, for Percent Fatty Acid Uptake Inhibition: test concentration or dose not given here.

T6 sequence (P16671 2-472 limits assumed): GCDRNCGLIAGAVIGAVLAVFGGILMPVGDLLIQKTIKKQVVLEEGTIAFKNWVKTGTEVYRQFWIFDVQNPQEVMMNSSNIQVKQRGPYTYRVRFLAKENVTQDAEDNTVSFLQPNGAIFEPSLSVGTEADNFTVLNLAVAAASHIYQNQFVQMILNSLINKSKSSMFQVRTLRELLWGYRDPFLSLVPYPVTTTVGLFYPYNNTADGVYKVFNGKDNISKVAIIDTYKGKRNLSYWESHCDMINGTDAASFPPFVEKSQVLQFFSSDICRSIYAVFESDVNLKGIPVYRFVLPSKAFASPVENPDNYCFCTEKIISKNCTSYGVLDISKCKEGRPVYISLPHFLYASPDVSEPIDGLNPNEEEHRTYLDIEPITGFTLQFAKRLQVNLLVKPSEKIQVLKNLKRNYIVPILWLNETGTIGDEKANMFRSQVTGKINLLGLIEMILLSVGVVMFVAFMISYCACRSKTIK
T8 sequence (Q08857 whole entry): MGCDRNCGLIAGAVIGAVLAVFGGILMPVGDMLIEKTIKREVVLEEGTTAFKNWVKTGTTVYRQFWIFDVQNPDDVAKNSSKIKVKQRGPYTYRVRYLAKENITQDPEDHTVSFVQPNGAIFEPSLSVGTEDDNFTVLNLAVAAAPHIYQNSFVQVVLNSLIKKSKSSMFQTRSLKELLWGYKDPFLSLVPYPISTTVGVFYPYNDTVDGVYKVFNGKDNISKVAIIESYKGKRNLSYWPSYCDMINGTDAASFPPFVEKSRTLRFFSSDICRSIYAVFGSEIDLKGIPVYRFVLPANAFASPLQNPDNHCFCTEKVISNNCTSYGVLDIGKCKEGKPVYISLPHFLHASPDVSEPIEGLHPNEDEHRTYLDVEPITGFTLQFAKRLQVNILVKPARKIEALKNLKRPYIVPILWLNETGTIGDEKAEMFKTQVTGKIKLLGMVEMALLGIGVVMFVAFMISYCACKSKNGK
T17 sequence (P16671 30-439 limits assumed): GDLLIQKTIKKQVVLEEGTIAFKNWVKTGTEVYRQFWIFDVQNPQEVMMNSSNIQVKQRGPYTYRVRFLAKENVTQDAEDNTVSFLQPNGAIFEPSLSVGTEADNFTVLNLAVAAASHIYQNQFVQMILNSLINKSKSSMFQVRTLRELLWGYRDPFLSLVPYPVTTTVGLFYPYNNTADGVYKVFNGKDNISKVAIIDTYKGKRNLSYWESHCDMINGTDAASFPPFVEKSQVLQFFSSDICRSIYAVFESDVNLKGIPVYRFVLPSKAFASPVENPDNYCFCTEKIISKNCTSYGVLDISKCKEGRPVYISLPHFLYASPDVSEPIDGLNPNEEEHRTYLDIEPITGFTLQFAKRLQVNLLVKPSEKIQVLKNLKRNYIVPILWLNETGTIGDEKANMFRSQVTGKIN
T11 sequence (P16671 30-439 limits assumed): as above
T7 sequence (P16671 other isoform, or with tags, fused parts or gaps limits assumed): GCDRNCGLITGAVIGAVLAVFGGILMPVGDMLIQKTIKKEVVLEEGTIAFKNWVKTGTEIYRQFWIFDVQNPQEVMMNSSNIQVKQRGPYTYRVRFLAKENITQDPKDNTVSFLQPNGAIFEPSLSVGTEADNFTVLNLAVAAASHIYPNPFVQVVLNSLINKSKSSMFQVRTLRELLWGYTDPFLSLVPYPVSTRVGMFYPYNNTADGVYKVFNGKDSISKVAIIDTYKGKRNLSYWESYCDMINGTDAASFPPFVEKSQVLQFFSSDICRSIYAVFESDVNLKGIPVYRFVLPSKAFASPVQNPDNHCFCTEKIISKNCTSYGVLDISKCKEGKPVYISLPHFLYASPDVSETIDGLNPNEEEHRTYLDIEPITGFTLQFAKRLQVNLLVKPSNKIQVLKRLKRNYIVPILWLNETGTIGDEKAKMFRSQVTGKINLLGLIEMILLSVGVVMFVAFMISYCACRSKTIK
T9 sequence (P02745 23-245 limits assumed, chain 1 of 3): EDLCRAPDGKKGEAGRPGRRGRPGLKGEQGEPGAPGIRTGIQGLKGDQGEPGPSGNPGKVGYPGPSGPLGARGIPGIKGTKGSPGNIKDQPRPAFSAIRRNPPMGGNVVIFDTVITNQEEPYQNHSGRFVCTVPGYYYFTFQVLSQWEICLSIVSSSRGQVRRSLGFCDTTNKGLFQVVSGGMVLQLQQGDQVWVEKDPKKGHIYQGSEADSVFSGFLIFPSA
T9 sequence (P02746 28-253 limits assumed, chain 2 of 3): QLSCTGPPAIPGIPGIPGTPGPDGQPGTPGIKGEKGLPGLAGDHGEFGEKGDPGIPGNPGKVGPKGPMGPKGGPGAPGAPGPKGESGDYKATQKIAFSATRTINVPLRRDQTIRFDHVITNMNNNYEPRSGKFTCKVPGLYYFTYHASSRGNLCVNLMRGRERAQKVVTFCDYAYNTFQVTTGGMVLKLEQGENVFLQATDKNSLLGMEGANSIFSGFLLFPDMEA
T9 sequence (P02747 29-245 limits assumed, chain 3 of 3): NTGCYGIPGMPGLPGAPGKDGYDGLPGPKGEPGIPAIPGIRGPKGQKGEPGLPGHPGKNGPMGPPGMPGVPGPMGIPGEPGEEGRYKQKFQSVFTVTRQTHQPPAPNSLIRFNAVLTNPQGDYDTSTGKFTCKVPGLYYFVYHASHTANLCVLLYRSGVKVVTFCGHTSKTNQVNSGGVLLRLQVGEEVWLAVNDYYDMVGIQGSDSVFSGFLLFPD
T12 sequence (O75015 17-200 limits assumed): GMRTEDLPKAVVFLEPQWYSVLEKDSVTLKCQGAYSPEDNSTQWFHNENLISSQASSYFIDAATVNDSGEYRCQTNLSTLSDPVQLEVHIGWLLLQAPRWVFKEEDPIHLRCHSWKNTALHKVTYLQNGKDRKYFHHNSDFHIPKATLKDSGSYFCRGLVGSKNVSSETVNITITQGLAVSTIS
T10 sequence (P16671 30-439 limits assumed): as the sequence (P16671 30-439 limits assumed) above
T15 sequence (P08637 17-208 F176V limits assumed): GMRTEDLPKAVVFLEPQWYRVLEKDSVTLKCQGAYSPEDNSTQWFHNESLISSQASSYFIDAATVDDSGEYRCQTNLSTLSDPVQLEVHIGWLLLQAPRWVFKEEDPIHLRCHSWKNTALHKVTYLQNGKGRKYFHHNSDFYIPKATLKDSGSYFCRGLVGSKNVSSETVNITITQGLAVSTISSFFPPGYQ
T13 sequence (Q8SPW2 17-208 limits assumed): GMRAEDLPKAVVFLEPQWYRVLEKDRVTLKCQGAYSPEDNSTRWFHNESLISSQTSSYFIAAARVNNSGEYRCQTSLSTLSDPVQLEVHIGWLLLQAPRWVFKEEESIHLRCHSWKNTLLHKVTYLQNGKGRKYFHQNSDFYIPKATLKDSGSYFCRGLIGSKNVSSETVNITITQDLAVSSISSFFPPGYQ
T14 sequence (P08637 17-208 limits assumed): as the sequence (P08637 17-208 F176V limits assumed) above, with V160F counted along it
T16 sequence (P12314 16-288 limits assumed): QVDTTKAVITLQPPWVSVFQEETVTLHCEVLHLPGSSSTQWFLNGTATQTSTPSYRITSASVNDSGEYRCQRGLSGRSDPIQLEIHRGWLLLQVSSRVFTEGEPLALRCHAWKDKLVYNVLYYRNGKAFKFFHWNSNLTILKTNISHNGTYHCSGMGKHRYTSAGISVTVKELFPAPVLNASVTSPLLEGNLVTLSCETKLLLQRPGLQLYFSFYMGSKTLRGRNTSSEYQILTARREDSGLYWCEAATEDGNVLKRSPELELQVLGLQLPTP

Row | EC50 [2] [nM] | EC50 [3] [nM] | EC50 [4] [nM] | EC50 [6] [nM] | EC50 (read off the curve) [7] [nM] | Kd (human FcRn) [nM] | binding result (Human FcγRIIIb) | binding result (Cyno FcγRIIa) | binding result (Cyno FcγRIII) | binding result (Human FcγRIIIa (158F)) | binding result (Human FcγRIIIa (158V)) | binding result (Human FcγRIIa (131H)) | binding result (Human FcγRIIb) | binding result (Human FcγRIIa (131R)) | binding result (Human FcγRI) | EC50 [12] [nM] | EC50 [13] [nM] | Binder | binding result (C1q human protein) | binding result [11] | further results
1 | 2.07 | 1.23 | 1.99 | 0.42 | ~0.1 | 676 | binds | no binding | binds | binds | binds | binds | binds | binds | binds |  |  | 1G04 (antibody, human IgG1, kappa, L234A L235A, Chimeric human IgG1 with L234A/L235A (LALA); variable region of ONA-0-v1; also called 01G04; 001G04; copies: 2 + 2) heavy: not shown light: SIVMTQTPKFLLVSAGDRITITCKASQSVSDDVAWYQQKPGQSPKLLIYYASNRYTGVPDRFTGSGYGTDFTFTISTVQAEDLAVYFCQQDYSSPLTFGAGTKLEIKRTVAAPSVFIFPPSDEQLKSGTASVVCLLNNFYPREAKVQWKVDNALQSGNSQESVTEQDSKDSTYSLSSTLTLSKADYEKHKVYACEVTHQGLSSPVTKSFNRGEC | no binding (tested: 250 µg/mL C1q (highest point)) |  | IC50 of oxLDL uptake inhibition (DiI-oxLDL, SCC25 cells) [1]: 0.36 nM; Percent Fatty Acid Uptake Inhibition [5]: 30.5%; Kd (human CD36 (His-tagged)): 3.2 nM; koff (human CD36 (His-tagged)): 0.0094 s⁻¹; kon (human CD36 (His-tagged)): 2.9e+06 M⁻¹ s⁻¹; EC50 [8]: 0.34 nM; IC50 of fatty acid uptake inhibition (BODIPY FL C16, HEK hCD36 cells) [9]: 1 nM
2 |  |  |  | 0.38 | ~0.1 | 629 | binds | no binding | no binding | binds | binds | no binding | no binding | no binding | no binding |  |  | 1G06 (antibody, human IgG1, kappa, Variable regions of 1G04 on human IgG1 with L234S, L235T, G236R (STR); also called STR; copies: 2 + 2) heavy: QVQLKQSGADLVRPGASVKLSCKASGYTFTDYYINWVKQRPGQGLEWIARIYPGSGNTYYNEKFKGKATLTAEKSSSTAYMQLSSLTSEDSAVYFCARGIGGGFGMDYWGQGTSVTVSSASTKGPSVFPLAPSSKSTSGGTAALGCLVKDYFPEPVTVSWNSGALTSGVHTFPAVLQSSGLYSLSSVVTVPSSSLGTQTYICNVNHKPSNTKVDKKVEPKSCDKTHTCPPCPAPESTRGPSVFLFPPKPKDTLMISRTPEVTCVVVDVSHEDPEVKFNWYVDGVEVHNAKTKPREEQYNSTYRVVSVLTVLHQDWLNGKEYKCKVSNKALPAPIEKTISKAKGQPREPQVYTLPPSRDELTKNQVSLTCLVKGFYPSDIAVEWESNGQPENNYKTTPPVLDSDGSFFLYSKLTVDKSRWQQGNVFSCSVMHEALHNHYTQKSLSLSPGK light: SIVMTQTPKFLLVSAGDRITITCKASQSVSDDVAWYQQKPGQSPKLLIYYASNRYTGVPDRFTGSGYGTDFTFTISTVQAEDLAVYFCQQDYSSPLTFGAGTKLEIKRTVAAPSVFIFPPSDEQLKSGTASVVCLLNNFYPREAKVQWKVDNALQSGNSQESVTEQDSKDSTYSLSSTLTLSKADYEKHKVYACEVTHQGLSSPVTKSFNRGEC | no binding (tested: 250 µg/mL C1q (highest point)) |  | binding result (Cyno FcγRIIb): no binding
3 |  | 5.03 | 18.2 |  |  |  |  |  |  |  |  |  |  |  |  |  |  | 20G04 (antibody, human IgG1, V domains shown, Chimeric: mouse variable regions on human IgG1 LALA (L234A/L235A)) VH: QIQLVQSGPELVKPGASVKISCETSGHTFTEYTMHWVKQSHGKSLEWIGGIYPNNGATKYNQKFKGKATLTVDKSSSTAYMELRSLTSEDSAVYYCARDRYDVWFAYWGQGTLVTVSA VL: ETTVTQSPASLSVATGEKVTIRCITSTDIDDDMNWYQQKPGEPPKLLISEGNTLRPGVPSRFSSGGYGTDFVFTVENMLSEDVADYYCLQSDNLPLTFGAGTKLELK |  |  | binding result [10]: binds
4 | 0.72 |  | 158 |  |  |  |  |  |  |  |  |  |  |  |  | 0.46 | 2.66 | 26G04 (antibody, human IgG1, V domains shown, Chimeric: mouse variable regions on human IgG1 LALA (L234A/L235A)) VH: QVQMKESGAELMKPGASVKISCKATGYIFSNYWIEWLKERPGHGLEWIGDFLPGSSSANYNEKFKGKATFTADTSSNTAYMQLSSLTSEDSAVYYCVPFTVEVTDAMDYWGQGTSVTVSS VL: DIVLTQSHKFMSTSVGDRVSITCKASQDVSTAVAWYQQKPGQSPKLLIYSASYRYTGVPDRFTGSGSGTDFTFTISSVQAEDLAVYYCQQHYSTPRTFGGGTKLEIK |  | no binding (tested: 500 nM top concentration) | 
5 |  |  |  |  |  |  |  |  |  |  |  |  |  |  |  | 0.27 | 2.5 | 31G04 (antibody, human IgG1, V domains shown, Chimeric: mouse variable regions on human IgG1 LALA (L234A/L235A)) VH: QVQLQQSGSELRSPGSSVKLSCKDFDSEVFPIAYMSWVRQKPGHGFEWIGDILPSIGSTIYGEKFEDKATLDADTVSNTAYLELNSLTSEDSAIYYCARDYYGSSYGYFDVWGAGTTVTVPS VL: DIVLTQSPASLAVSLGQRATISCRASESVDSYGNSFMHWYQQKPGQPPKLLIYRASNLESGIPARFSGSGSRTDFTLTINPVEADDVATYYCQQSNEDPYTFGGGTKLEIK |  | no binding (tested: 500 nM top concentration) | 
